Data as given in publication PMC2795164, “VEZF1 Elements Mediate Protection from DNA Methylation”.

B1: HS4 FI wt (dsDNA)
DNA 1: GGAGCTCACGGGGACAGCCCCCCCCCAAAGCCCCCAGGGA
DNA 2: TCCCTGGGGGCTTTGGGGGGGGGCTGTCCCCGTGAGCTCC
B2: HS4 FV wt (dsDNA)
DNA 1: CCTGCAGACACCTGGGGGGATACGGGGAAAAAGCTTTAGG
DNA 2: CCTAAAGCTTTTTCCCCGTATCCCCCCAGGTGTCTGCAGG
B3: HS4 FIII wt (dsDNA)
DNA 1: AGGCGCGCCCCGGTCCGGCGCTCCCCCCGCATCCCCGAGCCGGGGCGCGCCT
DNA 2: AGGCGCGCCCCGGCTCGGGGATGCGGGGGGAGCGCCGGACCGGGGCGCGCCT
B4: glo wt (betaA-globin promoter, G16) (dsDNA)
DNA 1: AATTGCAGAGCTGGGAATCGGGGGGGGGGGGGGGGCGGGTGGTGGTGTGG
DNA 2: CCACACCACCACCCGCCCCCCCCCCCCCCCCGATTCCCAGCTCTGCAATT

How the values were obtained:
SP3, recombinant = SP3, recombinant (Gallus gallus (chicken), UniProt Q90WR8 1-771); experiment: EMSA; EMSA buffer, salt, pH and temperature not given in the material; competitors at 50-fold molar excess; details: protein: recombinant; label: 32P (probe); blunt
SP3, recombinant, sequence (Q90WR8 whole entry): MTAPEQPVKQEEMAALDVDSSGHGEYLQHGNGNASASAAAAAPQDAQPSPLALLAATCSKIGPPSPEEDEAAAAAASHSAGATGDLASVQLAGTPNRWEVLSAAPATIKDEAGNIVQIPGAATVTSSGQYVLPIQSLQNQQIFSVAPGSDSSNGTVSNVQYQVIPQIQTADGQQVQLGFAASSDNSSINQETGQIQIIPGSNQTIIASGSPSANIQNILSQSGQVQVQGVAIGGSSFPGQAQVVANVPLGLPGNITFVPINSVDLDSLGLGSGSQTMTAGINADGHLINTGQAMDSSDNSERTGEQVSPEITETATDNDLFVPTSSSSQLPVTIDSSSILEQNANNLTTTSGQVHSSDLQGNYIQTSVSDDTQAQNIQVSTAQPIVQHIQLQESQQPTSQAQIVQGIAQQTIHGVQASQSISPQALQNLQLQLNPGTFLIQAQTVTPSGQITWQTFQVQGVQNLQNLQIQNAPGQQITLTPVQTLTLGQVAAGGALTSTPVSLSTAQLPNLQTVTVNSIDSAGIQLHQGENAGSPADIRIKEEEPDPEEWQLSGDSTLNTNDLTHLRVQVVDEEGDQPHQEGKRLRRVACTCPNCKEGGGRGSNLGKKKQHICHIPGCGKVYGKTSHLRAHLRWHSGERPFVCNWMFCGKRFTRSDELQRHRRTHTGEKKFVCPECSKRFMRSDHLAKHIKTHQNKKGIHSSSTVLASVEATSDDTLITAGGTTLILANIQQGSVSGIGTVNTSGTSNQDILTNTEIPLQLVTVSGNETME

VEZF1 (BGP1) [1] = target: T1, VEZF1 (BGP1) (Gallus gallus (chicken), UniProt I6LDD9 1-555); experiment: as above; details: protein: ivt; label: 32P (probe); blunt
T1 sequence: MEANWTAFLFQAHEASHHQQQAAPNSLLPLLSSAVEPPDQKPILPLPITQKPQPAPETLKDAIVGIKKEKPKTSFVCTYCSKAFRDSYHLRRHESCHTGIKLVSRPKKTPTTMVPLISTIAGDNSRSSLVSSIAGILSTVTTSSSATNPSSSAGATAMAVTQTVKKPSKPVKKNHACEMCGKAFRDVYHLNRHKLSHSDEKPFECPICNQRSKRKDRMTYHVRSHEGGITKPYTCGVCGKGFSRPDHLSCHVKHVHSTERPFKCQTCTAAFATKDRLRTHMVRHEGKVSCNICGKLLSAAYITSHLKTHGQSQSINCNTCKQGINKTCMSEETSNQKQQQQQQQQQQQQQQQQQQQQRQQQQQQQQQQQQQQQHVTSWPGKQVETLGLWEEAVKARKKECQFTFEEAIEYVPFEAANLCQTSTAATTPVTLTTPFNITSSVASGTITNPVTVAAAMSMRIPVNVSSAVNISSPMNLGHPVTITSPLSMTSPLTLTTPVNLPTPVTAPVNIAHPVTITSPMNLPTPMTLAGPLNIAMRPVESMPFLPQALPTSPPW

SP1, recombinant = SP1, recombinant (Gallus gallus (chicken), UniProt A0A8V1A4P9 1-760); experiment: as above; details: protein: recombinant; label: 32P (probe); blunt
SP1, recombinant, sequence (A0A8V1A4P9 entry or part of it): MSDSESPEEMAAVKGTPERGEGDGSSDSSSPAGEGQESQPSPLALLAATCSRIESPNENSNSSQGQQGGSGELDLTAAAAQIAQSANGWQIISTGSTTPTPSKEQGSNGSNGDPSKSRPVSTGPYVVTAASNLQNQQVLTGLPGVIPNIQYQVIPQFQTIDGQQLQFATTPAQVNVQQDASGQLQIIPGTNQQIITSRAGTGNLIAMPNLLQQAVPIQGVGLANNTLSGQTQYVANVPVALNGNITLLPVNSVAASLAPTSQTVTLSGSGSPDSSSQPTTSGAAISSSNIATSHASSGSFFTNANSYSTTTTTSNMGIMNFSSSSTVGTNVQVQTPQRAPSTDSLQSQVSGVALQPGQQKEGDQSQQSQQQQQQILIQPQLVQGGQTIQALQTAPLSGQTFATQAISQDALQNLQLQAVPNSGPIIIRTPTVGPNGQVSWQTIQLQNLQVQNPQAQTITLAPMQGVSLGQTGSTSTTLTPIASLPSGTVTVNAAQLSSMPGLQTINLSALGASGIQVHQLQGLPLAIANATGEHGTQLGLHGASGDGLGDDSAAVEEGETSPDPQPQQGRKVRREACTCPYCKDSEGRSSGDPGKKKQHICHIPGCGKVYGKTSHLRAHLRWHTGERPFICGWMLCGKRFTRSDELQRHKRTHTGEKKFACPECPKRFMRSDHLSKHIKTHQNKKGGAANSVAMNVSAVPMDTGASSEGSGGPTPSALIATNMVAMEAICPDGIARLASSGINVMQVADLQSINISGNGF

ZF5, recombinant [2] = target: T2, ZF5, recombinant (Gallus gallus (chicken), UniProt Q92010 1-448, R436A); experiment: as above; details: protein: recombinant; label: 32P (probe); blunt
T2 sequence: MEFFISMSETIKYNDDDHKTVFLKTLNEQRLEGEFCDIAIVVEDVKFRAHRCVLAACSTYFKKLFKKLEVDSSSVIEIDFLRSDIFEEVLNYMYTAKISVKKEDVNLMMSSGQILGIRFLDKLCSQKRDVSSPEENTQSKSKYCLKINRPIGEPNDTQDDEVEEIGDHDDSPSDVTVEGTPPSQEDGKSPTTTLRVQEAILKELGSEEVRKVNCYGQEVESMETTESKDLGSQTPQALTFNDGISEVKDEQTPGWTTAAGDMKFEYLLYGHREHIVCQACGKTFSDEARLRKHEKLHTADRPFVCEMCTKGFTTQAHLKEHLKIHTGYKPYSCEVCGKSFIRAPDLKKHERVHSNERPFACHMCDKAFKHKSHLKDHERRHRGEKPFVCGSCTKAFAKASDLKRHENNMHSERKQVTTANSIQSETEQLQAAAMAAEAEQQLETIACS

VEZF1 (BGP1) [3] = target: T1, VEZF1 (BGP1); experiment: as above; details: protein: ivt; label: 32P (probe); blunt; remark: listed apart in the source
ZF5, recombinant [4] = target: T2, ZF5, recombinant; experiment: EMSA; no specificity for the dG-dC string; EMSA buffer, salt, pH and temperature not given in the material; competitors at 50-fold molar excess; details: protein: recombinant; label: 32P (probe); blunt

Binder	binding result (SP3, recombinant)	binding result (VEZF1 (BGP1) [1])	binding result (SP1, recombinant)	binding result (ZF5, recombinant [2])	binding signal (VEZF1 (BGP1) [3])	binding result (ZF5, recombinant [4])
B1	binds	binds	binds	no binding	–	–
B2	no binding	–	no binding	–	~5 fold lower affinity than FI and betaA sites	–
B3	no binding	–	no binding	–	~2 fold lower affinity than FI and betaA sites	binds
B4	binds	binds	binds	–	–	–
